From article PMC9482650, “Quantitative fragmentomics allow affinity mapping of interactomes” (Nature Communications, 2022)

T1: PDZRN3_1, Q9UPQ7
T1 sequence (Q9UPQ7 244-349, limits assumed, looked up): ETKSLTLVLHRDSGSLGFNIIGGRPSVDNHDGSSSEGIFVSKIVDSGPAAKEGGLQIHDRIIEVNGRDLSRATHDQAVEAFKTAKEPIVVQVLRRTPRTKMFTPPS

T2: MPDZ_12, O75970
T2 sequence (O75970 1857-1958, limits assumed, looked up): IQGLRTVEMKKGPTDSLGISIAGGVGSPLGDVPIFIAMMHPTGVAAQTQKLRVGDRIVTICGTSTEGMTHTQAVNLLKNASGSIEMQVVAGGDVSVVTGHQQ

T3: DFNB31_1, Q9P202
T3 sequence (Q9P202 135-233, limits assumed, looked up): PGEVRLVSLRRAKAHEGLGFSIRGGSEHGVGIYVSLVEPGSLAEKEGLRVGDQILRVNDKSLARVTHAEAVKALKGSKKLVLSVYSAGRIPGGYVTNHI

T4: APBA2_1, Q99767
T4 sequence (Q99767 563-664, limits assumed, looked up): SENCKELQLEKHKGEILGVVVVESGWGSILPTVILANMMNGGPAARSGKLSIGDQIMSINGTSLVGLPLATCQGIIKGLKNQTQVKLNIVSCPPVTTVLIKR

T5: DVL3, Q92997
T5 sequence (Q92997 244-331, limits assumed, looked up): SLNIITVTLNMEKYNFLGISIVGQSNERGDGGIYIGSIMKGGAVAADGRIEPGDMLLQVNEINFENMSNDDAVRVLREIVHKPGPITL

T6: GRIP1_2, Q9Y3R0
T6 sequence (Q9Y3R0 145-248, limits assumed, looked up): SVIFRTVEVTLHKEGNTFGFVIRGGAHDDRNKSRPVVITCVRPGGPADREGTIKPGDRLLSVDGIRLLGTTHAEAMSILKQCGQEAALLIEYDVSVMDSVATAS

T7: GRIP1_3, Q9Y3R0
T7 sequence (Q9Y3R0 247-346, limits assumed, looked up): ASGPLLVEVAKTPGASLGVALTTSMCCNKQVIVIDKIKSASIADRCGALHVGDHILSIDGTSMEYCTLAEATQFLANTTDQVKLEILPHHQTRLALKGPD

T8: SNTB1, Q13884
T8 sequence (Q13884 107-205, limits assumed, looked up): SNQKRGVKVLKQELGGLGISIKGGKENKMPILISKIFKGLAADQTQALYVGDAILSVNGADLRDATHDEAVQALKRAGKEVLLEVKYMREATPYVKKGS

T9: LRRC7, Q96NW7
T9 sequence (Q96NW7 1440-1537, limits assumed, looked up): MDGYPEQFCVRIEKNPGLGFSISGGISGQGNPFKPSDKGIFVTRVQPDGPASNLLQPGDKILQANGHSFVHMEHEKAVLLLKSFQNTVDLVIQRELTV

T10: RHPN1, Q8TCX5
T10 sequence (Q8TCX5 508-602, limits assumed, looked up): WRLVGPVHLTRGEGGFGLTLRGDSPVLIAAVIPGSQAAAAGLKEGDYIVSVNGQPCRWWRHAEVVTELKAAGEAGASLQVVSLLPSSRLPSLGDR

T11: RADIL, Q96JH8
T11 sequence (Q96JH8 971-1071, limits assumed, looked up): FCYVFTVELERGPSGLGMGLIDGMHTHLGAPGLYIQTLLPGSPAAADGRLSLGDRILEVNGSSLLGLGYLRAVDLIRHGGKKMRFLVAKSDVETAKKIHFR

T12: SNTG2, Q9NY99
T12 sequence (Q9NY99 68-166, limits assumed, looked up): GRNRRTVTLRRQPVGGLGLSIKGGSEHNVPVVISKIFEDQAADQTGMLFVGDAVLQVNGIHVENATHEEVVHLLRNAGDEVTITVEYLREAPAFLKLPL


Tests used:
Assay in all cases: holdup assay
Parameters in all cases: key: below the threshold = too weak to quantify, mostly under pKd 3.1 to 4
Details in all cases: plain residues with an end cap or a label only (N-terminal biotin on a linker: ado-ado)
MAGI2_3, Q86UL8 = biological target: MAGI2_3, Q86UL8
SCRIB_1, Q14160 = biological target: SCRIB_1, Q14160
DLG4_3, P78352 = biological target: DLG4_3, P78352
PDZRN3_1, Q9UPQ7 = biological target: T1, PDZRN3_1, Q9UPQ7
SCRIB_3, Q14160 = biological target: SCRIB_3, Q14160
ARHGEF12, Q9NZN5-2 = biological target: ARHGEF12, Q9NZN5-2
MPDZ_12, O75970 = biological target: T2, MPDZ_12, O75970
DFNB31_1, Q9P202 = biological target: T3, DFNB31_1, Q9P202
APBA2_1, Q99767 = biological target: T4, APBA2_1, Q99767
DVL3, Q92997 = biological target: T5, DVL3, Q92997
GRIP1_2, Q9Y3R0 = biological target: T6, GRIP1_2, Q9Y3R0
GRIP1_3, Q9Y3R0 = biological target: T7, GRIP1_3, Q9Y3R0
SNTB1, Q13884 = biological target: T8, SNTB1, Q13884
PARD3_3, Q8TEW0 = biological target: PARD3_3, Q8TEW0
LRRC7, Q96NW7 = biological target: T9, LRRC7, Q96NW7
DLG1_2, Q12959 = biological target: DLG1_2, Q12959
Inadl_4, Q8NI35 = biological target: Inadl_4, Q8NI35
DLG2_3, Q15700 = biological target: DLG2_3, Q15700
AHNAK1, Q09666 = biological target: AHNAK1, Q09666
RHPN1, Q8TCX5 = biological target: T10, RHPN1, Q8TCX5
RADIL, Q96JH8 = biological target: T11, RADIL, Q96JH8
SNTG2, Q9NY99 = biological target: T12, SNTG2, Q9NY99
NHERF4_2, Q86UT5 = biological target: NHERF4_2, Q86UT5
Inadl_10, Q8NI35 = biological target: Inadl_10, Q8NI35
MAGI2_5, Q86UL8 = biological target: MAGI2_5, Q86UL8
Chain of MAGI2_5, Q86UL8 (Q86UL8 915-1017): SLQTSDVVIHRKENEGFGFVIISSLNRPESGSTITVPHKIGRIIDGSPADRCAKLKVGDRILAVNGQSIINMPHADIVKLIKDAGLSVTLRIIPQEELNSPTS

Chain of NHERF4_2, Q86UT5 (Q86UT5 220-308): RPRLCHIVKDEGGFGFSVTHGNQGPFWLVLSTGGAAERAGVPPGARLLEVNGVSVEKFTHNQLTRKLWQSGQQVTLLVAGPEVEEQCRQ
Chain of Inadl_4, Q8NI35 (Q8NI35 547-651): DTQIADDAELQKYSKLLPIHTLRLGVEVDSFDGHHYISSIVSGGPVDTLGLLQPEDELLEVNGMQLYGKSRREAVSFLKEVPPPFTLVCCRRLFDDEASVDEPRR
Chain of ARHGEF12, Q9NZN5-2 (Q9NZN5 other isoform, or with tags, fused parts or gaps): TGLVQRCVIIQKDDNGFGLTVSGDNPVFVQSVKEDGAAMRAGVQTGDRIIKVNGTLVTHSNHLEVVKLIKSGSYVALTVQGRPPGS
Chain of DLG4_3, P78352 (P78352 306-403): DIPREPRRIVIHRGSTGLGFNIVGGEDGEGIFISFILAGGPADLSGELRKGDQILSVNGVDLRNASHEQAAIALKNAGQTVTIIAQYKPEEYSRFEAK
Chain of AHNAK1, Q09666 (Q09666 4-100): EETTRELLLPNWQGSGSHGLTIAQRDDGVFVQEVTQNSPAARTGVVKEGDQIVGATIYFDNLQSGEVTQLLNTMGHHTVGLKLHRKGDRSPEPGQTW
Chain of Inadl_10, Q8NI35 (Q8NI35 1673-1763): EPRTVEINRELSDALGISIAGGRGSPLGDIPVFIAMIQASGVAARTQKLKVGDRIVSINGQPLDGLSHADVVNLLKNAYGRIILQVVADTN
Chain of DLG1_2, Q12959 (Q12959 314-412): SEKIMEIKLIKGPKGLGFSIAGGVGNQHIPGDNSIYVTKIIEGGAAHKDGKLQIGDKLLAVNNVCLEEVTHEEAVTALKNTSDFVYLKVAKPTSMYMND
Chain of MAGI2_3, Q86UL8 (Q86UL8 600-682): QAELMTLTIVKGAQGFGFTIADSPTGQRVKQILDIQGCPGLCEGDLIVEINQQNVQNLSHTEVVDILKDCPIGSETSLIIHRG
Chain of SCRIB_3, Q14160 (Q14160 999-1103): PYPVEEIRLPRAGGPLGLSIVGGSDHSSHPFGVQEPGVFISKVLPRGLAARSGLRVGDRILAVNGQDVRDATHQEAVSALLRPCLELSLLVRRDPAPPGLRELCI
Chain of SCRIB_1, Q14160 (Q14160 718-814): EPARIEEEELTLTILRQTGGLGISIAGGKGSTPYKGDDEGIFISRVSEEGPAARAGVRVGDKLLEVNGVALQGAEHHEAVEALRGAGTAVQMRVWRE
Chain of PARD3_3, Q8TEW0 (Q8TEW0 582-685): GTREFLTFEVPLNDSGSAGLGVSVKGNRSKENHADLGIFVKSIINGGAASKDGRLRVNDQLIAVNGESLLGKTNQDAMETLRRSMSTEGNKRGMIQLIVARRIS

| pKd (MAGI2_3, Q86UL8) | pKd (SCRIB_1, Q14160) | pKd (DLG4_3, P78352) | pKd (PDZRN3_1, Q9UPQ7) | pKd (SCRIB_3, Q14160) | pKd (ARHGEF12, Q9NZN5-2) | pKd (MPDZ_12, O75970) | pKd (DFNB31_1, Q9P202) | pKd (APBA2_1, Q99767) | pKd (DVL3, Q92997) | pKd (GRIP1_2, Q9Y3R0) | pKd (GRIP1_3, Q9Y3R0) | pKd (SNTB1, Q13884) | pKd (PARD3_3, Q8TEW0) | pKd (LRRC7, Q96NW7) | pKd (DLG1_2, Q12959) | pKd (Inadl_4, Q8NI35) | pKd (DLG2_3, Q15700) | pKd (AHNAK1, Q09666) | pKd (RHPN1, Q8TCX5) | Binder | other results |
| --- | --- | --- | --- | --- | --- | --- | --- | --- | --- | --- | --- | --- | --- | --- | --- | --- | --- | --- | --- | --- | --- |
| below the threshold | 4.92 | below the threshold | 4.03 | 4.81 | 3.81 | below the threshold | 5.13 | below the threshold | below the threshold | below the threshold | below the threshold | 4.51 | 3.9 | below the threshold | 3.92 | below the threshold | 3.9 | below the threshold | 4.93 | PLATCDETSI [SEMA4F, O95754] | pKd (RADIL, Q96JH8): below the threshold; pKd (SNTG2, Q9NY99): 4.55; pKd (NHERF4_2, Q86UT5): below the threshold; pKd (Inadl_10, Q8NI35): below the threshold; pKd (MAGI2_5, Q86UL8): below the threshold |
| 3.71 | 5.69 | 4.86 | 6.34 | 5.37 | 4.93 | below the threshold | 4.85 | below the threshold | below the threshold | below the threshold | below the threshold | 5.39 | below the threshold | 4.33 | 4.81 | below the threshold | 4.79 | below the threshold | 4.8 | GTMFLRETSL [GUCY1A2, P33402] | pKd (RADIL, Q96JH8): below the threshold; pKd (SNTG2, Q9NY99): 5.27; pKd (NHERF4_2, Q86UT5): below the threshold; pKd (Inadl_10, Q8NI35): below the threshold; pKd (MAGI2_5, Q86UL8): 3.98 |
| 3.6 | 3.79 | below the threshold | below the threshold | 3.77 | 4.69 | below the threshold | 3.79 | 3.5 | below the threshold | below the threshold | below the threshold | 3.71 | below the threshold | below the threshold | below the threshold | below the threshold | below the threshold | below the threshold | 3.76 | IKLETKKTKL [SLC15A2, Q16348] | pKd (RADIL, Q96JH8): below the threshold; pKd (SNTG2, Q9NY99): 3.62; pKd (NHERF4_2, Q86UT5): 3.63; pKd (Inadl_10, Q8NI35): below the threshold; pKd (MAGI2_5, Q86UL8): 3.6 |
| below the threshold | below the threshold | below the threshold | 3.83 | below the threshold | below the threshold | below the threshold | below the threshold | below the threshold | below the threshold | below the threshold | below the threshold | below the threshold | below the threshold | below the threshold | 3.5 | below the threshold | below the threshold | below the threshold | below the threshold | NSTHNLKDYV [CLDN20, P56880] | pKd (RADIL, Q96JH8): 3.85; pKd (SNTG2, Q9NY99): below the threshold; pKd (NHERF4_2, Q86UT5): below the threshold; pKd (Inadl_10, Q8NI35): below the threshold; pKd (MAGI2_5, Q86UL8): below the threshold |
| below the threshold | below the threshold | below the threshold | below the threshold | below the threshold | below the threshold | below the threshold | below the threshold | below the threshold | below the threshold | below the threshold | below the threshold | below the threshold | below the threshold | below the threshold | below the threshold | below the threshold | below the threshold | below the threshold | below the threshold | FVFESRKEIL [TBPL1, P62380] | pKd (RADIL, Q96JH8): below the threshold; pKd (SNTG2, Q9NY99): below the threshold; pKd (NHERF4_2, Q86UT5): below the threshold; pKd (Inadl_10, Q8NI35): below the threshold; pKd (MAGI2_5, Q86UL8): below the threshold |
| below the threshold | 3.65 | below the threshold | below the threshold | 3.66 | 4.13 | below the threshold | below the threshold | below the threshold | below the threshold | below the threshold | below the threshold | 4.15 | 4.1 | below the threshold | below the threshold | below the threshold | 3.74 | below the threshold | below the threshold | GQNMTVSVVI [PRLHR, P49683] | pKd (RADIL, Q96JH8): 4.26; pKd (SNTG2, Q9NY99): below the threshold; pKd (NHERF4_2, Q86UT5): below the threshold; pKd (Inadl_10, Q8NI35): below the threshold; pKd (MAGI2_5, Q86UL8): below the threshold |
